For data set [1], the target named is C-terminal SNAP-tagged H3.3 K27M (UniProt P84243).
Data set [2] deals with C-terminal SNAP-tagged H3.3 G34R (UniProt P84243).

In the case of “Polynucleotide Kinase 3′-Phosphatase (PNKP)”, the “NHEJ activity by random plasmid integration assay upon knockdown of PNKP” value in data set [1] is “it does reduce NHEJ in H3.3K27M and G34R cells”; in data set [2], “it does reduce NHEJ in H3.3K27M and G34R cells”.

Source of the values: US20250257357.
